B1: GpH7-A48/GpH7-B3-01-15Y/GpL16-k0 (antibody, human IgG1, kappa)
heavy 1: QVQLVQSGAEVKKPGASVTVSCKASGYTFTDYEMHWIRQPPGEGLEWIGAIDPKTGDTAYSESFQDRVTLTADKSTSTAYMELSSLTSEDTAVYYCTRFYSYTYWGQGTLVTVSSASTKGPSVFPLAPSSKSTSGGTAALGCLVKDYFPEPVTVSWNSGALTSGVHTFPAVLQSSGLYSLSSVVTVPSSSLGTQTYICNVNHKPSNTKVDKKVEPKSCDKTHTCPPCPAPELLGGPSVFLFPPKPKDTLMISRTPEVTCVVVDVSHEDPEVKFNWYVDGVEVHNAKTKPREEQYNSTYRVVSVLTVLHQDWLNGKEYKCKVSNKALRAPIEKTISKAKGQPREPQVYTLPPSRKELTKNQVSLTCLVKGFYPSDIAVEWESNGQPENNYKTTPPVLDSDGSFFLYSKLTVDKSRWQQGNVFSCSVMHEALHNRYTQKSLSLSP
heavy 2: not shown
light: DIVMTQSPLSLPVTPGEPASISCQASESLVHSNRNTYLHWYLQKPGQSPQLLIYKVSNRFSGVPDRFSGSGSGTDFTLKISRVEAEDVGVYYCSQNTHVPPTFGQGTKVEIERTVAAPSVFIFPPSDEQLKSGTASVVCLLNNFYPREAKVQWKVDNALQSGNSQESVTEQDSKDSTYSLSSTLTLSKADYEKHKVYACEVTHQGLSSPVTKSFNRGEC
notes: Heterodimerized anti-glypican-3 IgG1 variant
B2: GpH7-A48/GpH7-B3-03-20W/GpL16-k0 (antibody, human IgG1, kappa)
heavy 1: QVQLVQSGAEVKKPGASVTVSCKASGYTFTDYEMHWIRQPPGEGLEWIGAIDPKTGDTAYSESFQDRVTLTADKSTSTAYMELSSLTSEDTAVYYCTRFYSYTYWGQGTLVTVSSASTKGPSVFPLAPSSKSTSGGTAALGCLVKDYFPEPVTVSWNSGALTSGVHTFPAVLQSSGLYSLSSVVTVPSSSLGTQTYICNVNHKPSNTKVDKKVEPKSCDKTHTCPPCPAPELLGGPSVFLFPPKPKDTLMISRTPEVTCVVVDVSHEDPEVKFNWYVDGVEVHNAKTKPREEQYNSTYRVVSVLTVLHQDWLNGKEYKCKVSNKALRAPIEKTISKAKGQPREPQVYTLPPSRKELTKNQVSLTCLVKGFYPSDIAVEWESNGQPENNYKTTPPVLDSDGSFFLYSKLTVDKSRWQQGNVFSCSVMHEALHNRYTQKSLSLSP
heavy 2: not shown
light: DIVMTQSPLSLPVTPGEPASISCQASESLVHSNRNTYLHWYLQKPGQSPQLLIYKVSNRFSGVPDRFSGSGSGTDFTLKISRVEAEDVGVYYCSQNTHVPPTFGQGTKVEIERTVAAPSVFIFPPSDEQLKSGTASVVCLLNNFYPREAKVQWKVDNALQSGNSQESVTEQDSKDSTYSLSSTLTLSKADYEKHKVYACEVTHQGLSSPVTKSFNRGEC
notes: as for B1
B3: GpH7-A48/GpH7-B3-06-09D/GpL16-k0 (antibody, human IgG1, kappa)
heavy 1: QVQLVQSGAEVKKPGASVTVSCKASGYTFTDYEMHWIRQPPGEGLEWIGAIDPKTGDTAYSESFQDRVTLTADKSTSTAYMELSSLTSEDTAVYYCTRFYSYTYWGQGTLVTVSSASTKGPSVFPLAPSSKSTSGGTAALGCLVKDYFPEPVTVSWNSGALTSGVHTFPAVLQSSGLYSLSSVVTVPSSSLGTQTYICNVNHKPSNTKVDKKVEPKSCDKTHTCPPCPAPELLGGPSVFLFPPKPKDTLMISRTPEVTCVVVDVSHEDPEVKFNWYVDGVEVHNAKTKPREEQYNSTYRVVSVLTVLHQDWLNGKEYKCKVSNKALRAPIEKTISKAKGQPREPQVYTLPPSRKELTKNQVSLTCLVKGFYPSDIAVEWESNGQPENNYKTTPPVLDSDGSFFLYSKLTVDKSRWQQGNVFSCSVMHEALHNRYTQKSLSLSP
heavy 2: not shown
light: DIVMTQSPLSLPVTPGEPASISCQASESLVHSNRNTYLHWYLQKPGQSPQLLIYKVSNRFSGVPDRFSGSGSGTDFTLKISRVEAEDVGVYYCSQNTHVPPTFGQGTKVEIERTVAAPSVFIFPPSDEQLKSGTASVVCLLNNFYPREAKVQWKVDNALQSGNSQESVTEQDSKDSTYSLSSTLTLSKADYEKHKVYACEVTHQGLSSPVTKSFNRGEC
notes: as for B1
B4: GpH7-A48/GpH7-B3-15-02A/GpL16-k0 (antibody, human IgG1, kappa)
heavy 1: QVQLVQSGAEVKKPGASVTVSCKASGYTFTDYEMHWIRQPPGEGLEWIGAIDPKTGDTAYSESFQDRVTLTADKSTSTAYMELSSLTSEDTAVYYCTRFYSYTYWGQGTLVTVSSASTKGPSVFPLAPSSKSTSGGTAALGCLVKDYFPEPVTVSWNSGALTSGVHTFPAVLQSSGLYSLSSVVTVPSSSLGTQTYICNVNHKPSNTKVDKKVEPKSCDKTHTCPPCPAPELLGGPSVFLFPPKPKDTLMISRTPEVTCVVVDVSHEDPEVKFNWYVDGVEVHNAKTKPREEQYNSTYRVVSVLTVLHQDWLNGKEYKCKVSNKALRAPIEKTISKAKGQPREPQVYTLPPSRKELTKNQVSLTCLVKGFYPSDIAVEWESNGQPENNYKTTPPVLDSDGSFFLYSKLTVDKSRWQQGNVFSCSVMHEALHNRYTQKSLSLSP
heavy 2: not shown
light: DIVMTQSPLSLPVTPGEPASISCQASESLVHSNRNTYLHWYLQKPGQSPQLLIYKVSNRFSGVPDRFSGSGSGTDFTLKISRVEAEDVGVYYCSQNTHVPPTFGQGTKVEIERTVAAPSVFIFPPSDEQLKSGTASVVCLLNNFYPREAKVQWKVDNALQSGNSQESVTEQDSKDSTYSLSSTLTLSKADYEKHKVYACEVTHQGLSSPVTKSFNRGEC
notes: as for B1
B5: GpH7-A48/GpH7-B3-20-08L/GpL16-k0 (antibody, human IgG1, kappa)
heavy 1: QVQLVQSGAEVKKPGASVTVSCKASGYTFTDYEMHWIRQPPGEGLEWIGAIDPKTGDTAYSESFQDRVTLTADKSTSTAYMELSSLTSEDTAVYYCTRFYSYTYWGQGTLVTVSSASTKGPSVFPLAPSSKSTSGGTAALGCLVKDYFPEPVTVSWNSGALTSGVHTFPAVLQSSGLYSLSSVVTVPSSSLGTQTYICNVNHKPSNTKVDKKVEPKSCDKTHTCPPCPAPELLGGPSVFLFPPKPKDTLMISRTPEVTCVVVDVSHEDPEVKFNWYVDGVEVHNAKTKPREEQYNSTYRVVSVLTVLHQDWLNGKEYKCKVSNKALRAPIEKTISKAKGQPREPQVYTLPPSRKELTKNQVSLTCLVKGFYPSDIAVEWESNGQPENNYKTTPPVLDSDGSFFLYSKLTVDKSRWQQGNVFSCSVMHEALHNRYTQKSLSLSP
heavy 2: not shown
light: DIVMTQSPLSLPVTPGEPASISCQASESLVHSNRNTYLHWYLQKPGQSPQLLIYKVSNRFSGVPDRFSGSGSGTDFTLKISRVEAEDVGVYYCSQNTHVPPTFGQGTKVEIERTVAAPSVFIFPPSDEQLKSGTASVVCLLNNFYPREAKVQWKVDNALQSGNSQESVTEQDSKDSTYSLSSTLTLSKADYEKHKVYACEVTHQGLSSPVTKSFNRGEC
notes: as for B1
B6: GpH7-A48/GpH7-B3-22-10E/GpL16-k0 (antibody, human IgG1, kappa)
heavy 1: QVQLVQSGAEVKKPGASVTVSCKASGYTFTDYEMHWIRQPPGEGLEWIGAIDPKTGDTAYSESFQDRVTLTADKSTSTAYMELSSLTSEDTAVYYCTRFYSYTYWGQGTLVTVSSASTKGPSVFPLAPSSKSTSGGTAALGCLVKDYFPEPVTVSWNSGALTSGVHTFPAVLQSSGLYSLSSVVTVPSSSLGTQTYICNVNHKPSNTKVDKKVEPKSCDKTHTCPPCPAPELLGGPSVFLFPPKPKDTLMISRTPEVTCVVVDVSHEDPEVKFNWYVDGVEVHNAKTKPREEQYNSTYRVVSVLTVLHQDWLNGKEYKCKVSNKALRAPIEKTISKAKGQPREPQVYTLPPSRKELTKNQVSLTCLVKGFYPSDIAVEWESNGQPENNYKTTPPVLDSDGSFFLYSKLTVDKSRWQQGNVFSCSVMHEALHNRYTQKSLSLSP
heavy 2: not shown
light: DIVMTQSPLSLPVTPGEPASISCQASESLVHSNRNTYLHWYLQKPGQSPQLLIYKVSNRFSGVPDRFSGSGSGTDFTLKISRVEAEDVGVYYCSQNTHVPPTFGQGTKVEIERTVAAPSVFIFPPSDEQLKSGTASVVCLLNNFYPREAKVQWKVDNALQSGNSQESVTEQDSKDSTYSLSSTLTLSKADYEKHKVYACEVTHQGLSSPVTKSFNRGEC
notes: as for B1

The binders below were run against T1, FcγRIIIa extracellular domain with C-terminal His tag (human, UniProt P08637 17-208) (assay: SPR (Biacore), antibody captured on antigen peptide chip, FcγR as analyte).
T1 construct: extracellular domain; also called FcgRIIIa; CD16A
T1 sequence (P08637 17-208): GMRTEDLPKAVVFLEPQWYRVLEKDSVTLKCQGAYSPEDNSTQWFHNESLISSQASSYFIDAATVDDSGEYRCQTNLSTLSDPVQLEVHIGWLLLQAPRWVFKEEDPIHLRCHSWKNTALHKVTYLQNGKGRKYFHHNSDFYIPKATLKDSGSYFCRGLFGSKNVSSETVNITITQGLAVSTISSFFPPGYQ
Excerpt: The expression vectors for the respective H chains were combined in a way that each of the alterations L234Y, G236W, S298A, S239D, A330L, and I332E is present in the same H chain as P329R or in the different H chain from P329R, and the expression vector GpL16-k0 for the L chain was combined with them. Antibodies of interest were expressed and prepared according to the method described in Reference Example 1. The prepared antibodies were used to assay the FcγRIIIa-binding activity. The result of assessment using P329R on the direction of FcγRIIIa recognition by L234Y, G236W, S298A, S239D, A330L, and I332E is summarized in Table 12.
Analysis of interaction between objective antibody and the FcγR was carried out using Biacore T100 (GE Healthcare). HBS-EP+ (GE Healthcare) was used as the running buffer, and the measurement temperature was set to 25° C. Chips produced by immobilizing the antigen peptide by the amine coupling method to a Series S Sencor Chip CM5 (GE Healthcare), or alternatively, chips produced by allowing preliminarily biotinylated antigen peptides to interact with and immobilize onto a Series S Sensor Chip SA (certified) (GE Healthcare) were used. Antibodies of interest were captured onto an antigen peptide-immobilized chip, and allowed to interact to each FcγR diluted with running buffer. To regenerate and repeatedly use the chip, the antibodies captured on the chip were washed off by reacting 10 mM glycine-HCl, pH 1.5.

Binder	FcγRIIIa BINDING ACTIVITY (relative)
B1	11 relative, GpH7-A5/GpH7-B3/GpL16-k0 = 100
B2	13 relative, GpH7-A5/GpH7-B3/GpL16-k0 = 100
B3	123 relative, GpH7-A5/GpH7-B3/GpL16-k0 = 100
B4	47 relative, GpH7-A5/GpH7-B3/GpL16-k0 = 100
B5	60 relative, GpH7-A5/GpH7-B3/GpL16-k0 = 100
B6	189 relative, GpH7-A5/GpH7-B3/GpL16-k0 = 100

From US20180155451A1 (published 2018)
